By Km is commonly meant the substrate concentration at which the rate is half of its maximum. As a reminder, the kcat is the number of substrate molecules converted per active site and unit of time at saturation. The kcat/Km is the second-order rate constant that governs catalysis at low substrate concentration.

This passage reports Km, kcat and kcat/Km results from PMC9728394, “Molecular Docking and Kinetic Studies of the A226N Mutant of Deinococcus geothermalis Amylosucrase with Enhanced Transglucosylation Activity” (Journal of Microbiology and Biotechnology, 2020).

Data set [1] has as its system OC[C@H]1O[C@@](CO)(O[C@H]2O[C@H](CO)[C@@H](O)[C@H](O)[C@H]2O)[C@@H](O)[C@@H]1O. The experiment in a line: HPLC of 4-methylumbelliferone glucoside, initial velocities, Lineweaver-Burk fit. In kind it is biochemical, Deinococcus geothermalis. The following applies: donor, 0.4-200 mM, 1 mM 4-methylumbelliferone as acceptor, 50 mM Tris-HCl pH 8.0, 45°C. An excerpt: (§1) HPLC of 4-methylumbelliferone glucoside, initial velocities, Lineweaver-Burk fit on DgAS (WT DgAS)

The test system of another data set is Cc1cc(=O)oc2cc(O)ccc12. The description is as above. It is filed as biochemical, Deinococcus geothermalis. The following applies: acceptor, 0.1-1.0 mM, 200 mM sucrose as donor, 50 mM Tris-HCl pH 8.0, 45°C.
Text: as §1

Take “DgAS (WT DgAS) (Deinococcus geothermalis DSM 11300)”: in data set [1], the Km was 36.174 ± 2.037 mM, the kcat was determined as 0.1096 s⁻¹ and the kcat/Km worked out at 3.03 M⁻¹ s⁻¹.
As for “DgAS (WT DgAS) (Deinococcus geothermalis DSM 11300; A226N)”, in the data set with Cc1cc(=O)oc2cc(O)ccc12, the Km turned out to be 2.718 ± 0.655 mM, the kcat came out at 0.28778 s⁻¹ and the kcat/Km amounted to 106 M⁻¹ s⁻¹. Also, in data set [1], the Km turned out to be 44.570 ± 4.625 mM, the kcat amounted to 0.1139 s⁻¹ and the kcat/Km was determined as 2.55 M⁻¹ s⁻¹.
